Target: Nlgn1, Q99K10-1
Sequence (Q99K10 whole entry): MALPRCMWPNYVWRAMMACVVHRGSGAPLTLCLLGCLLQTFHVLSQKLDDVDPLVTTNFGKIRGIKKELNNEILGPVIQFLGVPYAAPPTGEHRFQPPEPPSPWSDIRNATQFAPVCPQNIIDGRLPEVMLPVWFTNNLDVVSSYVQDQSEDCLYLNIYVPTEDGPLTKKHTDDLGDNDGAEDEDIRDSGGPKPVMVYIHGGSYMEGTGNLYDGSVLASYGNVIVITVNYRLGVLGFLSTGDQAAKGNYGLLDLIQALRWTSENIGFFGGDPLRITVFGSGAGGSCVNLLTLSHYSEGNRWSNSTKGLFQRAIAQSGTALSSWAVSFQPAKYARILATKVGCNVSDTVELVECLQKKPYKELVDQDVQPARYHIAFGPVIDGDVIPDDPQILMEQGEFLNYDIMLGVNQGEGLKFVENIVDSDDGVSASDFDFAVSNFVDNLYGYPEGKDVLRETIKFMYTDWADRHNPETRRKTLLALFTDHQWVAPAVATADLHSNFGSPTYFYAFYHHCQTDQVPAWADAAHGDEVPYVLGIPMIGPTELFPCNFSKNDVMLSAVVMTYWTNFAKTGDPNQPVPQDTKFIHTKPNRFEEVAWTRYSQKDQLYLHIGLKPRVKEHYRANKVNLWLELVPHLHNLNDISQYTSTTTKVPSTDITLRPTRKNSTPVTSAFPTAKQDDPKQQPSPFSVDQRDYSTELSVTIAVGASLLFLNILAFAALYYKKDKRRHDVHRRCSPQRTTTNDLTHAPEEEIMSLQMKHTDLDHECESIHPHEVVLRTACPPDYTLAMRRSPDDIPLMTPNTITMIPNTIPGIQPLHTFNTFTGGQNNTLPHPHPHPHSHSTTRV

Sequence of Neurexin-1-beta (Homo sapiens), P58400-1 L139R (P58400 other isoform, or with tags, fused parts or gaps L139R): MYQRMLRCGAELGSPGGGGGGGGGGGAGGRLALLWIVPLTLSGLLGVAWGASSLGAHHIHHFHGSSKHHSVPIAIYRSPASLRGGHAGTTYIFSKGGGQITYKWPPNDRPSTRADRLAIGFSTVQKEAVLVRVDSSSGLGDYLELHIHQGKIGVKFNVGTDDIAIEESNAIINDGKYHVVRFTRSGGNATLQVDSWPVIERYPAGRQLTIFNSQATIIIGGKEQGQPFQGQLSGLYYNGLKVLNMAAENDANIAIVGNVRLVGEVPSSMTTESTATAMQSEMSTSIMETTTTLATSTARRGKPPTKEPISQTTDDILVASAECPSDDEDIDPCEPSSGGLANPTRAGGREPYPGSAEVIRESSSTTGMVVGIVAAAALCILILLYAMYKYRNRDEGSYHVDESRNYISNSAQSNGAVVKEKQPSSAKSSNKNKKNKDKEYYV
Sequence of Neurexin-1-beta (Homo sapiens), P58400-1 S111R (P58400 other isoform, or with tags, fused parts or gaps S111R): as the sequence (P58400 other isoform, or with tags, fused parts or gaps L139R) above
Sequence of Neurexin-1-beta (Homo sapiens), P58400-1 D141S (P58400 other isoform, or with tags, fused parts or gaps D141S): as the sequence (P58400 other isoform, or with tags, fused parts or gaps L139R) above
Sequence of Neurexin-1-beta (Homo sapiens), P58400-1 L240R (P58400 other isoform, or with tags, fused parts or gaps L240R): as the sequence (P58400 other isoform, or with tags, fused parts or gaps L139R) above

effect of a mutation on the interaction | Substance
disrupting interaction | Neurexin-1-beta (Homo sapiens), P58400-1 D141S
disrupting interaction | Neurexin-1-beta (Homo sapiens), P58400-1 L139R
disrupting interaction | Neurexin-1-beta (Homo sapiens), P58400-1 L240R
disrupting interaction | Neurexin-1-beta (Homo sapiens), P58400-1 S111R
